From patent publication US20030171295A1

Molecular target: human melanocortin 1 receptor (hMC1-r transfected COS-7 cells) (human) (UniProt Q01726)
Experiment: Scatchard analysis on MC1-r transfected COS7 cells, culture supernatant with up to 30 nM AP-Ag

For “AP-Ag, truncated agouti protein containing the cysteine-rich domain tagged with alkaline phosphatase at its N-terminal (from UniProt Q03288) (ligand)”, the Kd was 20 to 30 nM.
